The text below walks through data of the supplement of paper PMC10126150.

± gives the standard deviation of the averaged measurements.
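Note: ATP exposure 15 min at 22 °C before imaging.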

The subject of this data set is ATP. The data set is described as follows: switch fluorescence ratio, 500 uM ATP over buffer (Cy3 cluster intensity, sum of 5 cycles each) (fold (ratio)); higher = stronger signal-on switching upon ATP binding; sequences stand for … in TCGTCGGCAGCGTCAGATGTGTATAAGAGACAGTTTTTTTTTTTTTTTTTTTTTTTTT…TC. The conditions noted are these: aptamer strand: ATP DNA aptamer (quencher-CACCTGGGGGAGTATTGCGGAGGAAGG + anchor), 100 nM annealed; ATP concentration: 500 uM. The method in brief: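 Switching-strand clusters labelled with Cy3 on a modified Illumina MiSeq flow-cell were annealed to 100 nM quencher-labelled ATP aptamer, imaged in selection buffer, and re-imaged after 15 min with 500 uM ATP at 22 °C. This was done over five cycles with NaOH stripping and re-annealing in between. The fluorescence ratio is summed target-cycle over summed buffer-cycle Cy3 intensity per cluster, averaged per switch-domain sequence, excluding clusters outside 100-1000 RFU.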
In the case of CACACTGGCA, the switch fluorescence ratio amounted to 0.996 ± 0.05. AAAGACAGGG: the switch fluorescence ratio amounted to 0.976 ± 0.036. The same measure for TGGCCGGTTT: 1.01 ± 0.011; for AAGGTCTGGT: 0.985 ± 0.038. The same measure for AAAGGTAATC: 1.01 ± 0.023. The same measure for TTGGGGGGTC: 1 ± 0.034. On to TAGGGTGGGG, for which the switch fluorescence ratio is 0.99 ± 0.072. As for TTAATTTGGA, the figure is 1.014 ± 0.0088.

TAATACTTAT: the switch fluorescence ratio is 0.994 ± 0.033. As for ATTAATAGTT, the figure is 0.997 ± 0.053; as for GACTACATTA, 1.03 ± 0.025. As for AGATATTTAT, the figure is 0.987 ± 0.014; as for TTCGGTGGGA, 1.07 ± 0.02.

As to TTGATTAATT, the switch fluorescence ratio came to 0.9925 ± 0.0099. In the case of ACAGGAGCGT, the switch fluorescence ratio turned out to be 1.1017 ± 0.00065.

GGCTATCAAA: the switch fluorescence ratio was found to be 1.01 ± 0.018.

For TAAGAATCGC, the switch fluorescence ratio is 1.15 ± 0.2. The same measure for GCAGCAGATG: 1.077 ± 0.0072; for GATTGGTTGT: 1.01 ± 0.022. For the sequence TGGTTGTACG, the switch fluorescence ratio was found to be 1.01 ± 0.027.

Consider TCGAAATTTT, for which the switch fluorescence ratio worked out at 1 ± 0.022.

Turning to GGTTCTATTT, the switch fluorescence ratio was 1.03 ± 0.016. The same measure for CGATTATGTA: 0.9667 ± 0.0078; for TGATTGTATC: 0.981 ± 0.055.

As to GTGTTAAGTT, the switch fluorescence ratio was 0.987 ± 0.034.

Regarding GCTGTGTAGG, the switch fluorescence ratio was 0.994 ± 0.013. For GAGTGGGGTT, the switch fluorescence ratio turned out to be 1.011 ± 0.0024. The same measure for TTTCGGGAAT: 1.08 ± 0.11; for GTTGGTAGGA: 1.01 ± 0.033.

GCTAGTTTCG: the switch fluorescence ratio is 1.03 ± 0.019. With TGGTTGGGTT, the switch fluorescence ratio stood at 1 ± 0.021. With AAATATATAT, the switch fluorescence ratio worked out at 0.994 ± 0.044. As for GCAATTGTCG, the figure is 1.02 ± 0.046; as for TTTCCATCAC, 1 ± 0.042; as for AGGGCAGAGG, 0.98599 ± 0.00021. As for ATGGCCAGCA, the figure is 1.01 ± 0.03; as for ATGCCATGTG, 1 ± 0.022. As for TCAGGATATG, the figure is 0.988 ± 0.035.

TACGGTGGGA: the switch fluorescence ratio is 1.0079 ± 0.00053. Consider ACGTGTTAAT, for which the switch fluorescence ratio was 1.005 ± 0.0017. Regarding CGGGGTAGTC, the switch fluorescence ratio was 0.967 ± 0.07. As for TGGAAATTGT, the figure is 0.9944 ± 0.0077; as for GCCGTCAGTT, 0.9899 ± 0.0048. The same measure for GCGTATAGGG: 0.964 ± 0.033; for TTATTTGGCC: 0.997 ± 0.032. As for AAGCCTGGAG, the figure is 1.02 ± 0.026.

Turning to TTAATCTTAA, the switch fluorescence ratio turned out to be 0.972 ± 0.018. The same measure for ATATTTTGGC: 1.04 ± 0.034; for AGATAGAGCG: 1.01 ± 0.024. For GACACCATCC, the switch fluorescence ratio worked out at 1.55 ± 0.18.

Regarding CTAAAATTGA, the switch fluorescence ratio was 0.985 ± 0.038. As for TACAGGGGTA, the figure is 1.05 ± 0.012; as for GAAAGAAAAA, 1.09 ± 0.043. The same measure for GTGGGGAATG: 0.986 ± 0.024; for TTCGGTCCGT: 0.981 ± 0.026. The same measure for TCCAGGGGAT: 1.07 ± 0.12. Regarding TGGGGGGCTG, the switch fluorescence ratio turned out to be 0.983 ± 0.048. As for CGTAGACTTG, the figure is 0.9736 ± 0.005. The same measure for CGTAAATTGT: 0.9672 ± 0.0039; for TCTGGGGGAA: 1.06 ± 0.15. As for AGTGGTGGGT, the figure is 1.01 ± 0.035; as for TCGTAGGAGC, 1.03 ± 0.02; as for GGCTGCAGCT, 0.992 ± 0.016.

Consider GGTGTTAGG, for which the switch fluorescence ratio is 1 ± 0.016. As for GGTGCTTTTG, the figure is 0.9888 ± 0.0085; as for TGTATGATGT, 1.03 ± 0.049; as for CTGGGATTTT, 0.959 ± 0.0021. TTGTTTGATG: the switch fluorescence ratio came to 1.01 ± 0.011. For the sequence TGCACGATTG, the switch fluorescence ratio amounted to 1.03 ± 0.03. The same measure for CGGGTTCTGG: 0.989 ± 0.014; for TGAGCGTCGG: 0.968 ± 0.051. For TAGCAATGAA, the switch fluorescence ratio was determined as 1.53 ± 0.057. As for AGGTGGCCGT, the figure is 0.963 ± 0.02.

On to CTATTTTAAG, for which the switch fluorescence ratio came to 1.02 ± 0.051. For ATTAAGTTTT, the switch fluorescence ratio was 1 ± 0.028. As for GTGGAAAGGA, the figure is 0.991 ± 0.024. Take ATTTACGAGT: the switch fluorescence ratio was 0.981 ± 0.045.

On to TTAATGTATT, for which the switch fluorescence ratio worked out at 0.995 ± 0.016.
